Measured values as given in publication PMC3876041, “Screening of Peptide Ligands for Pyrroloquinoline Quinone Glucose Dehydrogenase Using Antagonistic Template-Based Biopanning” (International Journal of Molecular Sciences, 2013).

Key:
[1] = Kinetic parameters of GDH-B and mutant enzymes; assay type: biochemical
Description: (§1) GDH-B activity was measured using 0.06 mM 2,6-dichlorophenolindophenol (DCIP) and 0.6 mM phenazine methosulfate (PMS) following 30 min pre-incubation in 10 mM MOPS–NaOH buffer (pH 7.0) containing 1 μM PQQ and 1 mM CaCl2 at room temperature (25 °C). The enzyme activity was determined by measuring the decrease in absorbance of DCIP at 600 nm. For the inhibition assay, the residual activity of 0.7 nM GDH-B for 50 mM D-glucose was measured following 1 h incubation with various concentrations of each peptide. GDH-B activity in the absence of peptide was defined as 100%.

[2] = Substrate specificity of GDH-B mutants; assay type: biochemical; conditions: galactose 20 mM; activity against glucose = 100%
Description: Figure 3. Substrate specificity of wild-type GDH-B (W.T.), DEE-His, and HI against glucose, lactose, maltose, 3-O-methylglucose (3-O-m glucose), allose, galactose, or 2-deoxyglucose (2DG). Each substrate concentration was 20 mM. The enzymatic activity of each enzyme against glucose was set as 100%.
as §1

[3] = DCIP/PMS assay, 10 mM MOPS–NaOH pH 7.0, 1 μM PQQ, 1 mM CaCl2, 25 °C

B1: DEE-His: GDH-B mutant V453D-Q454E-K455E, 6-His tag fused to the C-terminal, antagonistic template (protein)
chain: DVPLTPSQFAKAKSENFDKKVILSNLNKPHALLWGPDNQIWLTERATGKILRVNPESGSVKTVFQVPEIVNDADGQNGLLGFAFHPDFKNNPYIYISGTFKNPKSTDKELPNQTIIRRYTYNKSTDTLEKPVDLLAGLPSSKDHQSGRLVIGPDQKIYYTIGDQGRNQLAYLFLPNQAQHTPTQQELNGKDYHTYMGKVLRLNLDGSIPKDNPSFNGVVSHIYTLGHRNPQGLAFTPNGKLLQSEQGPNSDDEINLIVKGGNYGWPNVAGYKDDSGYAYANYSAAANKSIKDLAQNGVKVAAGVPVTKESEWTGKNFVPPLKTLYTVQDTYNYNDPTCGEMTYICWPTVAPSSAYVYKGGKKAITGWENTLLVPSLKRGVIFRIKLDPTYSTTYDDAVPMFKSNNRYRDVIASPDGNVLYVLTDTAGNDEEDDGSVTNTLENPGSLIKFTYKAK
modifications: left off: His6, C-terminal, kept
notes: GDH-B mutant V453D-Q454E-K455E, 6-His tag fused to the C-terminal, antagonistic template
Q: Which results are given for B1?
A: Km [1, 3]: 91 mM; Vmax [1, 3]: 28 U/mg protein; Km compared to wild-type enzyme (in words) ([1]; compared to the wild-type enzyme): increased Km value; GDH activity with PQQ (in words) ([1]; refolded DEE-His, with PQQ): showed GDH activity with PQQ; relative activity toward galactose (in words) [2]: higher relative activity toward galactose
